Data from patent publication US20180346912, “METHOD FOR STABILIZING DNA APTAMERS” (TAGCYX BIOTECHNOLOGIES, published 2018).

Biological target: vWF A1 domain (UniProt P04275 P04275:1277-1453)
Assay: competition; EMSA competition vs 32P-ARC1172(wt) (=1.00), PBS, 0.1 mg/mL BSA, 37 C
Conditions: tags: U-Protein Express BV
Description: In order to examine each prepared nucleic acid for its binding to vWF A1 domain, competition with ARC1172 reported as an aptamer binding to vWF A1 domain was tested using each variant nucleic acid. In 20 μL of a reaction solution (1× PBS and 0.1 mg/mL BSA). ARC1172 labeled with [γ-³²P]ATP (final concentration: 100 nM), each unlabeled nucleic acid (ARC1172(wt), ARC1172(wt)-iT, ARC1172-F, ARC 1172-F-iT, and ARC1172-G) (final concentration: 100 nM), and vWF A1 domain (100 nM, U-Protein Express BV) were mixed and incubated at 37° C. for 30 minutes. Then, 25% glycerol containing bromophenol blue was added thereto at a final glycerol concentration of 5%. Labeled ARC1172(wt) bound to vWF A1 domain was separated from labeled ARC1172 in a free form by 10% non-denaturing polyacrylamide gel electrophoresis. The gel was dried and visualized using Bio Image Analyzer FLA-7000, and the radioactivity was measured. The gel shift rate, the inhibition rate, and the relative binding rate were calculated in accordance with Example 2.

Chain of vWF A1 domain (P04275 1277-1453, one chain of several): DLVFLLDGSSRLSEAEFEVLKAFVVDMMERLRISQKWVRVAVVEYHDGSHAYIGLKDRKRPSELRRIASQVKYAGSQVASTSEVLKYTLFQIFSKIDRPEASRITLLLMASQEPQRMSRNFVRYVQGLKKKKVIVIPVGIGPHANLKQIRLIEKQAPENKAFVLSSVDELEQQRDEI

Binder	binding signal (internal mini-hairpin)	further results
GGCGTGCAGTGCCGAAGGCCGTGCGGTGCCTCCGTCACGCC (ssDNA, 3' idT) [ARC1172-F-iT]	1.43	
GGCGTGCAGTGCCGAAGGCCGTGCGGTGCCTCCGTCACGCC (ssDNA) [ARC1172-F]	1.37	
GGCGTGCAGTGCCTTCGGCCGTGCGGTGCCTCCGTCACGCC (ssDNA, 3' idT) [ARC1172(wt)-iT]		binding signal: 1.12
GGCGTGCAGTGCCGAAGGCCGTGCGGTGCCTCCGTCACGCCCGCGAAGCG (ssDNA) [ARC1172-G]		binding signal (internal and 3' mini-hairpins): 1.61
